# Experimental data published in the DeepSol protein solubility set.
# Experiment: soluble on expression in E. coli; label from the status in PepcDB or PDB records
row,Sequence,soluble on expression in E. coli
1,MGSDKIHHHHHHMADYTKMWSELGLDLKSHDALLSILGSAYGDIFLSQKDRPEGMKYFDFVMSEVHGLRIQELMEAKARGRIVVGSYCVFVPEELILAVDGVSVGLCAGAEFNFEGAEEVLPRNTCALIKSAFGFKFGKVCPYLEACDVVVGENTCDGKKKAYEILGPLVTDLYVIDLHQTKSDMGRALLKEEYRRFAAKLESVSGKKITPDSLKKGIEVVNAKRMAVKRLAAIRAADPAPISGLDALLVNQVFFYDDPVRFTHSVNQLCDELEERVKQGIGVFAQGTTRVIVSGCPMAVPNWKLPMLIESSNAVIVGEESCVGERGTRWLTEFRGETEEDLLDALTERYFSIDCAVFTPNPSRVDYVKEMTKKLNAQGVIHYSLQFCQPHMVESGPVEKELEKSGIPTLRLETDYSQEDAGQLKTRIEAFVERLENK,not soluble
2,MSLKIKICGLSTKEAVDTAVESGVTHLGFILSPSKRQVAPEKILQITNDVPKTVKKVGVFVDEPIDFVKKAIQVAQLDLVQLHGNEDMNYINQLDISVIKAIRPDQEFKEYEDVILLFDSPQAGSGQAFDWDSLVTSGLKNKFFIAGGLNPENVAAAIQHFPNAYGVDVSSGVETDGIKNLTKIKNFVQNASLASSKQLFIEFLRITKKLNENKIIPYLMGSLAVEQIINFPTNPDDIDIQLKTSDFENFEQLTSLMEKLGYQLIDLHEHKFEKASIHVGFASVETLKNYAGVDYLTIQQERMENGEKYHLPNVEQSLKIYEAAKRDEWRGGKQKDSFIFDELIKEQKRNDNEGHHHHHH,soluble
3,MGKFSNQKKNRVKNKVAVTVKKAQRMKADAKNAKKDGEVDVEMKEEVVRVRGLAVSSLKKLASGELQNVPKVNEKKIIRKTELPVRENKKILDAPTGKRGTTAQYITKKKAKKMYKKMTHDARDKYRKIQAELAGDGEDDEEGEAEVMEQ,not soluble
4,MRACLKCKYLTNDEICPICHSPTSENWIGLLIVINPEKSEIAKKAGIDIKGKYALSVKE,soluble
5,MGSDKIHHHHHHMRREKKKGSDDQMADENEEYLMETRFSAEHIGLKLLEKKIITEQQFEDALRRQKSRGGGLGDVLIELGYLTEERLNQLLNAFPSVPKTIEDTGLDASFLADLVLKHSLSLREFRLADMVRRVKLPLSIVDSIVETLQREKMLEVKGGDGLARATYRFSITGIGENRAAGLLEICRYVGPAPVSLSDYREKVLTQSIQRVVVNPLTLKNALSHLVINPDLLKALGPALTSGQTIFLYGPTGNGKSSIAEAIGNVLPGTIFVPYAVYVEGELITVFDPVNHVPAPSETEDGKMDHRWLQIRRPVIMTGGELTLRTLDLEFNPISKFYIAPLQMKANNGLFIIDDFGRQQIEPKMLLNRWIVPLEKRVDFLTLHTGMKFSIPFDQLVIFATNLKPMELADEAFLRRIRYKIFIDYPSKEDFEVIFRKACEMKNVAFDPKAFQFLQDIYEKLGIQRSANHPRDLLEHIIDQSRYYGQEPELTVEGVSAAWEQNFIKNF,not soluble
6,STFQFNFTIEDHLENELTPIRDGALTLDSSKELSVSESQKGEERDRKCSAEQFDLPQDHLWEHKSMENAAPSQDTDSPLSAASSSRNLEPHGKQPSLRAAKEHAMPKDLKKMLENKVIETLPGFQHVKLSVVKTILLKENFPGENIVSKSFSSHSDLITGVYEGGLKIWECTFDLLAYFTKAKVKFAGKKVLDLGCGSGLLGITAFKGGSKEIHFQDYNSMVIDEVTLPNVVANSTLEDEENDVNEPDVKRCRKPKVTQLYKCRFFSGEWSEFCKLVLSSEKLFVKYDLILTSETIYNPDYYSNLHQTFLRLLSKNGRVLLASKAHYFGVGGGVHLFQKFVEERDVFKTRILKIIDEGLKRFIIEITFKFPG,not soluble
7,MNNRIIYVVSDSVGETAELVVKAALSQFNGSADDTHVRRIPYVEDIGTINEVISLAKADGGIICFTLVVPEIREYLIAEAEKANVLYYDIIGPLIDKMETAYGLTAKYEPGRVRQLDEDYFKKVEAIEFAVKYDDGRDPRGILKADIVLIGVSRTSKTPLSQYLAHKRLKVANVPIVPEVDPPEELFNVDPKKCIGLKISPDKLNHIRKERLKSLGLNDKAIYANINRIKEELEYFEKIVDRIGCQVVDVSNKAVEETANIIHHLKTKNIAAALEHHHHHH,not soluble
8,MGSDKIHHHHHHMLERYQGEDGRRLRVEAALDSKLAKGNQALAEAIADVATLRQFKAGQALIEQGGDDNQVYILISGSCDVIVNAKVVNRRGPGDHVGEMAAIQPAQRRSATIMATEQVLAFELPEPVFANLAATYPDIYRLIAKDLARRLLQRNAVTGTPRKRIRVFVISSVEALPIARAIQTAFEYDPFTVIVWTDGVFKVANYTLQSLEDEIDNSDFAIAIAHPDDKVESRQAQWPQPRDNVIFELGLFMGRLGRARAILMEPRDEKVKLPSDLAGVTTIGYRFDPDGDTQAALAPACNRLRNHIVELGLAVG,not soluble
9,MGSDKIHHHHHHMLMPDAPSNTESLPTSVDLAGEYQASGVAEILDELDRELVGLKPVKQRIRETAALLLVERARRAMGLSHEPPSLHMSFTGNPGTGKTTVALRMANLLHRLGYIRKGHLVSVTRDDLVGQYIGHTAPKTKEILKKAMGGVLFIDEAYYLYRPDNERDYGQEAIEILLQVMENNRDDLVVILAGYADRMDRFFESNPGFRSRIAHHIDFPDYDNGELLSIAESMLSRQGYRFDSKASAVMSDYIARRRRQPHFANARSIRNALDRARLRQANRLFEESAGPVDAEQLSTITARDIAASRVFATVEPSHTETSP,not soluble
10,MSLIAVLRINHRPFRDKRITTHVALTARAFGASSILVDEKDETLEQTINKVVENFGGNFFIKSGVDWKREFRNFKGIRVHLTMYGRPLEDVVKEIRESKKDVMILVGSEKVPFEAYEIADYNVSVTNQPISEVSALAIFLDRFYDGEELNWRFTGKINVYPSERGKKVKIIPDEQGCLDLLYKYGASDYLINHVKSVKELAVAIAKKTNADINLVTAGALLHDIGRTQVQGITHAVVGADILRREGIDDRVVSIVEKHIGAGIQSEEAVKLGLPPDNYVPETIEEMIVAHADNLFAGDKRLKLQQVVDNYRKKGLEDAAERIAKLHKFLSTVIGQDMDEIEGHHHHHH,soluble
11,MGHHHHHHSHGRLTLSAQHISHRPCLLSYSLLFWKVHHLFLEGFPCSPRLDEMSFHQFPQHPVHVSVVHLPIVYKGSMTQVSPH,not soluble
12,SISTHESQKLREYYRLLNLDEGCSVDDVRESFHKLARQYHPDSGSSDADSATFIKIEEAYRNVLSHAIKRMHAGQDKAEDAAEDEEEGKFKYNTPQHRHYLSFEGVGFGTPSQREKQYRQFRADRATEQVMEYQRQKLQREFFANSITVKDVRQSKQQKITQAIERLVEDLIQESMAKGDFDNLSGKGKPLKKFSGCSYIDPMTHNLNRILIDNGYQPEWILMQKEIKDTIEQLREALLMSRKKLGNPLSPTEQKQWAQVCEQFQEKIRKLNKRINDFNLIVPILTRQKVHFDAQKEIIRVQEMYGAFVEANEVTEENQTDVSQGEESKTPRVKAGFLNWLNLWKSIKI,soluble
13,DDEEDEGSTIARHFHELWDMANKQDVLELILEQDIQVEEPAIFSKAIINFKADLAKKTLGPRGREVLNRLMPKVFDAVFAHPDAQFGLPRVLHLLHNICTRTTYLELLDEHPAALVQLVRLCTASPMISEQLSRYPILLDELIDPQQLYNPIPLDSYRTELRDFLARIPEDDMEQQMEALRQFKQICILRIAAADIAGVLPVMKVSDHLTYLAEAIVEAVVSQAWLQVSEKYGEPTHVKDREGKGFAVIGYGKVGGWELGYNSDLDIVFMHDCPVNVYTDGKKEIDGRQFYLRLAQRIIHIFSTRTASGILYEVDTRLRPSGASGLLVSPTDAFDDYQHQDAWTWEHQALVRARMIYGDEPLAIAFHNTRHDVLCKPRDEQTLKKEVVEMREKMRDHLGGKKSGRFMIKQDVGGITDIEFLAQYLVLNYSHEKPKLTRWCDNVRIYETLIAQGVMEEDQAMQLIRAYTAMRNEIHHRNLLNLDADVVEDKFVAEREWVKQAWNQWFA,soluble
